From PMC8409985

Target: truncated human ACE2 ectodomain (residues 19–613) with C-terminal AVI-tag and 6xHis-tag, biotinylated (human) (UniProt Q9BYF1)
Assay: BLI

Q: With “SARS-CoV-2 RBD variant S477N (from UniProt P0DTC2 319-541) (domain or fragment)” as the substance, how does the t1/2 read?
A: The t1/2 was 2.68 min.
